From paper PMC5407892
pKd: −log10 of the molar value.

Experiments:
[1] = tested on: EhDNAligI full-length (DNA ligase I) (Entamoeba histolytica); test: fluorescence anisotropy; conditions: 3' dideoxy-C at the nick that halts ligation; Anisotropy: 50 mM Tris/HCl pH 7.5, 25 mM NaCl, 5 mM DTT, 10 mM MgCl2, 250 ug/mL BSA, 1 mM ATP, 30 C; footprinting: 50 mM Tris/HCl pH 7.5, 6.6 mM MgCl2, 5 mM …
[2] = tested on: EhDNAligI full-length (DNA ligase I);EhPCNA (Entamoeba histolytica;Entamoeba histolytica); test: fluorescence anisotropy; conditions: 3' dideoxy-C at the nick that halts ligation; Anisotropy: 50 mM Tris/HCl pH 7.5, 25 mM NaCl, 5 mM DTT, 10 mM MgCl2, 250 ug/mL BSA, 1 mM ATP, 30 C; footprinting: 50 mM Tris/HCl pH 7.5, 6.6 mM MgCl2, 5 mM …
[3] = tested on: EhDNAligI full-length (DNA ligase I);HsPCNA (Entamoeba histolytica;Homo sapiens); test: fluorescence anisotropy; conditions: with HsPCNA, 10 mM Mg2+, 1 mM ATP, 3' dideoxy-C at the nick that halts ligation, Anisotropy: 50 mM Tris/HCl pH 7.5, 25 mM NaCl, 5 mM DTT, 10 mM MgCl2, 250 ug/mL BSA, 30 C, footprinting: 50 mM Tris/HCl pH 7.5, 6.6 mM MgCl2, 5 mM …
[4] = tested on: EhDNAligI ΔDBD;EhPCNA (Entamoeba histolytica;Entamoeba histolytica); test: fluorescence anisotropy; conditions: 3' dideoxy-C at the nick that halts ligation; Anisotropy: 50 mM Tris/HCl pH 7.5, 25 mM NaCl, 5 mM DTT, 10 mM MgCl2, 250 ug/mL BSA, 1 mM ATP, 30 C; footprinting: 50 mM Tris/HCl pH 7.5, 6.6 mM MgCl2, 5 mM …
[5] = tested on: EhDNAligI ΔPIP (Entamoeba histolytica); test: fluorescence anisotropy; conditions: 3' dideoxy-C at the nick that halts ligation; Anisotropy: 50 mM Tris/HCl pH 7.5, 25 mM NaCl, 5 mM DTT, 10 mM MgCl2, 250 ug/mL BSA, 1 mM ATP, 30 C; footprinting: 50 mM Tris/HCl pH 7.5, 6.6 mM MgCl2, 5 mM …
[6] = tested on: EhDNAligI ΔPIP;EhPCNA (Entamoeba histolytica;Entamoeba histolytica); test: fluorescence anisotropy; conditions: 3' dideoxy-C at the nick that halts ligation; Anisotropy: 50 mM Tris/HCl pH 7.5, 25 mM NaCl, 5 mM DTT, 10 mM MgCl2, 250 ug/mL BSA, 1 mM ATP, 30 C; footprinting: 50 mM Tris/HCl pH 7.5, 6.6 mM MgCl2, 5 mM …
[7] = biological target: EhDNAligI-Phe11Ala:Phe12Ala (Entamoeba histolytica)
[8] = biological target: Entamoeba histolytica DNA ligase I, full-length (Entamoeba histolytica)
[9] = biological target: EhDNAligI deletion mutant lacking its first 39 amino acids including the PIP box (Entamoeba histolytica)
[10] = biological target: Entamoeba histolytica DNA ligase I, full-length (Entamoeba histolytica); remark: listed apart in the source

Substance: 3'-FAM nicked dsDNA (anisotropy substrate)
- pKd [1]: 7.14
- pKd [2]: 8.21
- pKd [3]: 7.95
- pKd [4]: 7.02
- pKd [5]: 7.09
- pKd [6]: 7.99

Substance: EhPCNA-V127A-I129A (natural protein)
- stimulation of nick-sealing activity (time course) by the EhPCNA mutant [7]: < 2.4 fold

Substance: EhPCNA-Δ254 (natural protein)
- stimulation of nick-sealing activity (time course) by the EhPCNA mutant [7]: < 2.4 fold

Substance: Entamoeba histolytica proliferating cell nuclear antigen (natural protein)
- affinity of the ligase for 3′-FAM-labeled nicked DNA by fluorescence anisotropy, with against without EhPCNA [8]: 11 fold
- catalytic efficiency (k cat/K m) of steady-state ligation, with against without EhPCNA [9]: > 18 fold
- catalytic efficiency (k cat/K m) of steady-state ligation, with against without EhPCNA [10]: > 18 fold
- stimulation of nick-sealing activity (time course) by wild-type EhPCNA [7]: 9.8 fold
